Laboratory results taken from patent US20220298235A1 (AKESO BIOPHARMA, published 2022).

T1: human p40-His (human, UniProt P29460 23-328)
T1 construct: Made by Akeso Biopharma; construct limits and tag not described; also called human IL-12/IL-23 p40 protein domain; human IL-12/IL-23 p40; not shown: His tag
T1 sequence (looked up): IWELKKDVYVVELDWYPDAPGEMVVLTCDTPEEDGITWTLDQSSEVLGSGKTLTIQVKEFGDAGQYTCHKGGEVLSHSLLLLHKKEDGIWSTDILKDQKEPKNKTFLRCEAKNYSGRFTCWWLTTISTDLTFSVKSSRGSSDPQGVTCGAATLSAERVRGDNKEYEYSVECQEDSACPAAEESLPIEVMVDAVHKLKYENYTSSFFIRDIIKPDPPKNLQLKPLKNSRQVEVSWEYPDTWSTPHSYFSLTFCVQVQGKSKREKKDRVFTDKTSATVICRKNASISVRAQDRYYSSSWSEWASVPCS

T2: Human IL12 (His Tag) (human, UniProt P29459 23-219; P29460 23-328)
T2 construct: Bought His-tagged heterodimer
T2 sequence (looked up) 1: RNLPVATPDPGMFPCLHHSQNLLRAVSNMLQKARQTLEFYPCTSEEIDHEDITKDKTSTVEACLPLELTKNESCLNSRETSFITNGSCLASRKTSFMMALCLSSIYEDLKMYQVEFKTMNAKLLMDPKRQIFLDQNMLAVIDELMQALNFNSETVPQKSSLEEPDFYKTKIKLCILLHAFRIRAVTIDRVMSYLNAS
T2 sequence (looked up) 2: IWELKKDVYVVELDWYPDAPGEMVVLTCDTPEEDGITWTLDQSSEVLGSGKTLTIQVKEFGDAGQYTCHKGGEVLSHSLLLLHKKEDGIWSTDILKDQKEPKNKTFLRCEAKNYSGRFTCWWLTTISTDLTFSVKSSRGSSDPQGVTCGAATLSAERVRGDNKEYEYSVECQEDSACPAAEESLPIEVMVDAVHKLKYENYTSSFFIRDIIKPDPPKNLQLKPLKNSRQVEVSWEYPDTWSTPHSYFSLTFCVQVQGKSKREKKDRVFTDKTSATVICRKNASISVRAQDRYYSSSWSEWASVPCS

T3: human IL-23 (IL-23-His-Biotin) (human, UniProt Q9NPF7 20-189; P29460 23-328, biotin label, site not stated)
T3 construct: Akesobio lot 20161209; His-tagged and biotinylated
T3 sequence (looked up) 1: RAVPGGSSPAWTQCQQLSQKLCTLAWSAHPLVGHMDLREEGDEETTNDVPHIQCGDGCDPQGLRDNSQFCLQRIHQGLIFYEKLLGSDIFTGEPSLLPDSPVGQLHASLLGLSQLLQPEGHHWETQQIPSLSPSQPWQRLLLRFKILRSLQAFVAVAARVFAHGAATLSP
T3 sequence (looked up) 2: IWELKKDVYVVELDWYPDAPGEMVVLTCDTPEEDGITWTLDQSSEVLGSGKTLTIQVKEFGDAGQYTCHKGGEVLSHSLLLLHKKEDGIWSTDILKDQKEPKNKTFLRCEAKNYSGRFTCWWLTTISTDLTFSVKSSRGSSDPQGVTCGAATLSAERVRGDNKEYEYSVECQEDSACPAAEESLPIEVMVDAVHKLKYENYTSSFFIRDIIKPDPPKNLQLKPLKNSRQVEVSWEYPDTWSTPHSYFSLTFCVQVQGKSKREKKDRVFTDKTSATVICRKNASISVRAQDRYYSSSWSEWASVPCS


Columns and labels:
[1] = target: T1, human p40-His; assay: BLI (Fortebio), p40-His on HIS1K sensor, antibody 5-0.31 nM, 37 °C, 1:1 fit
Protocol: The sample dilution buffer for H5L9, H5L10, H5L11, H5L12, H5L14, H8L15, Ab123FR1 and ustekinumab was PBS (0.02% Tween-20, 0.1% BSA, pH 7.4). p40-His was immobilized on a HIS1K (manufacturer: Fortebio, Cat. No.: 18-5120) sensor at a concentration of 1 μg/mL for 40 s. The sensor was equilibrated in a buffer for 60 s, and the p40-His immobilized on the sensor bound to the antibody at a concentration of 5-0.31 nM (two-fold dilution) for 120 s, and then the protein dissociated in the buffer for 300 s. The sensor was refreshed with 10 mM glycine solution (pH=1.5). The detection temperature was 37° C., the detection frequency was 0.3 Hz, and the sample plate shaking rate was 500 rpm. The data were analyzed by 1:1 model fitting to obtain affinity constants.

[2] = target: T2, Human IL12 (His Tag); assay: FACS competition, IL-12-His 20 nM on 293T-IL-12Rβ1&IL-23R cells; antibody 10 µg/mL
Protocol: (§1) 200 μL of 1% PBSA was added into each sample, and the mixture was centrifuged at 700×g for 5 min to discard the supernatant. According to experiment design, correspondingly diluted antibody (highest final concentration of 30 μg/mL, 3-fold dilution, 8 concentrations in total) and human IL-12 (Sino Biological, Cat. No.: CT-050-H08H-20) (final concentration of 20 nM) were mixed at a ratio of 1:1, and a blank control was set. The mixture of antibody and human IL12 was incubated on ice for 30 min and then added to the cell precipitate at 100 μL/sample. The resulting mixture was well mixed and incubated on ice for 60 min 200 μL of 1% PBSA was added, and the mixture was centrifuged at 700×g for 5 min to discard the supernatant, and then washed twice. Alexa Fluor® 488 anti-His tag antibody (Biolegend, Cat. No.: 652509) was diluted at a ratio of 1:400 and added to each tube at 100 μL. The mixture was well mixed and incubated on ice for 40 min in the absence of light. 200 μL of 1% PBSA was added, and the mixture was centrifuged at 700×g for 5 min to discard the supernatant, and then washed twice. 1% PBSA was added at 200 μL/tube, and the cells were resuspended and transferred to a flow cytometry tube for testing.

[3] = target: T2, Human IL12 (His Tag); assay: FACS competition, IL-12-His 20 nM on 293T-IL-12Rβ1&IL-23R cells; antibody 0.01 µg/mL
Protocol: as §1

[4] = target: T2, Human IL12 (His Tag); assay: FACS competition, IL-12-His 20 nM on 293T-IL-12Rβ1&IL-23R cells; antibody 0.04 µg/mL
Protocol: as §1

[5] = target: T3, human IL-23 (IL-23-His-Biotin); assay: FACS competition, IL-23-His-Biotin 2 µg/mL on 293T-IL-12Rβ1&IL-23R cells; antibody 10 µg/mL
Protocol: (§2) 200 μL of 1% PBSA was added into each sample, and the mixture was centrifuged at 700×g for 5 min to discard the supernatant. According to experiment design, correspondingly diluted antibody (highest final concentration of 30 μg/mL, 3-fold dilution, 8 concentrations in total) and human IL-23 (IL-23-His-Biotin, Akesobio, 20161209) (final concentration of 2 μg/mL) were mixed at a ratio of 1:1, and a blank control was set. The mixture of antibody and human IL23 was incubated on ice for 30 min and then added to the cell precipitate at 100 μL/sample. The resulting mixture was well mixed and incubated on ice for 60 min. 200 μL of 1% PBSA was added, and the mixture was centrifuged at 700×g for 5 min to discard the supernatant, and then washed twice. FITC Steptavidin (Biolegend, Cat. No.: 405202) was diluted at a ratio of 1:500 and added to each tube at 100 μL. The mixture was well mixed and incubated on ice for 40 min in the absence of light. 200 μL of 1% PBSA was added, and the mixture was centrifuged at 700×g for 5 min to discard the supernatant, and then washed twice. 1% PBSA was added at 200 μL/tube, and the cells were resuspended and transferred to a flow cytometry tube for testing.

[6] = target: T3, human IL-23 (IL-23-His-Biotin); assay: FACS competition, IL-23-His-Biotin 2 µg/mL on 293T-IL-12Rβ1&IL-23R cells; antibody 0.37 µg/mL
Protocol: as §2

Binder | Kd [1] | S E (kon) [1] | S E(kdis) [1] | koff [1] | kon [1] | MFI [2] | MFI [3] | MFI [4] | MFI [5] | MFI [6]
ustekinumab (antibody, V domains shown) VH: EVQLVQSGAEVKKPGESLKISCKGSGYSFTTYWLGWVRQMPGKGLDWIGIMSPVDSDIRYSPSFQGQVTMSVDKSITTAYLQWNSLKASDTAMYYCARRRPGQGYFDFWGQGTLVTVSS VL: DIQMTQSPSSLSASVGDRVTITCRASQGISSWLAWYQQKPEKAPKSLIYAASSLQSGVPSRFSGSGSGTDFTLTISSLQPEDFATYYCQQYNIYPYTFGQGTKLEIK | 0.0864 nM | 251000 M⁻¹ s⁻¹ | 0.000181 s⁻¹ | 0.000172 s⁻¹ | 1.99e+06 M⁻¹ s⁻¹ | 31 MFI | 160 MFI | 150 MFI | 11.5 MFI | 186 MFI
H5L10 (antibody, human IgG1, kappa, V domains shown, human IgG1 / kappa constant regions; also called humanized antibody H5L10) VH: EVQLVQSGAEVKKPGESLKISCQSSGYSFTTYWIGWVRQMPGQGLEWIGIMSPVDSDIRYNPMFRGQVTMSVDKSSSTAYLQWSSLKASDTAMYYCARRRPGQGYFDFWGQGTMVTVSS VL: EIVLTQSPATLSASPGERATISCRASQSVGSWLAWYQQKPGQAPRSLIYAASNLQSGIPARFSGSGSGTDFTLTISSLEPEDFAVYYCQQYNIYPYTFGQGTRLEIKR | 0.121 nM | 364000 M⁻¹ s⁻¹ | 0.000222 s⁻¹ | 0.000435 s⁻¹ | 3.58e+06 M⁻¹ s⁻¹ | 34.1 MFI | 163 MFI | 154 MFI | 12.7 MFI | 169 MFI
H5L9 (antibody, human IgG1, kappa, V domains shown, human IgG1 (P01857) / kappa (P01834) constant regions; also called humanized antibody H5L9) VH: EVQLVQSGAEVKKPGESLKISCQSSGYSFTTYWIGWVRQMPGQGLEWIGIMSPVDSDIRYNPMFRGQVTMSVDKSSSTAYLQWSSLKASDTAMYYCARRRPGQGYFDFWGQGTMVTVSS VL: DIQMTQSPSSLSASVGDRVTITCKASQNVGSWLAWYQQKPGKAPKSLIYSASSRQSGVPSRFSGSGSGTDFTLTISSLQPEDFATYYCQQYDIYPFTFGQGTKLEIKR | 0.849 nM | 850000 M⁻¹ s⁻¹ | 0.000307 s⁻¹ | 0.0092 s⁻¹ | 1.08e+07 M⁻¹ s⁻¹ | 134 MFI | 169 MFI | 158 MFI | 136 MFI | 206 MFI
H5L14 (antibody, human IgG1, kappa, V domains shown, human IgG1 / kappa constant regions; also called humanized antibody H5L14) VH: EVQLVQSGAEVKKPGESLKISCQSSGYSFTTYWIGWVRQMPGQGLEWIGIMSPVDSDIRYNPMFRGQVTMSVDKSSSTAYLQWSSLKASDTAMYYCARRRPGQGYFDFWGQGTMVTVSS VL: EIVLTQSPATLSASPGERATISCRASQSVSSWLAWYQQKPGQAPRSLIYAASNLQSGIPARFSGSGSGTDFTLTISSLEPEDFAVYYCQQYNIYPFTFGQGTRLEIKR | 0.062 nM | 236000 M⁻¹ s⁻¹ | 0.000158 s⁻¹ | 0.000182 s⁻¹ | 2.94e+06 M⁻¹ s⁻¹ | 46.3 MFI | 149 MFI | 155 MFI | 16.7 MFI | 179 MFI
H5L11 (antibody, human IgG1, kappa, V domains shown, human IgG1 / kappa constant regions; also called humanized antibody H5L11) VH: EVQLVQSGAEVKKPGESLKISCQSSGYSFTTYWIGWVRQMPGQGLEWIGIMSPVDSDIRYNPMFRGQVTMSVDKSSSTAYLQWSSLKASDTAMYYCARRRPGQGYFDFWGQGTMVTVSS VL: EIVLTQSPATLSASPGERATISCRASQSVSSWLAWYQQKPGQAPRSLIYSASNLQSGIPARFSGSGSGTDFTLTISSLEPEDFAVYYCQQYNIYPYTFGQGTRLEIKR | 0.136 nM | 232000 M⁻¹ s⁻¹ | 0.000144 s⁻¹ | 0.000428 s⁻¹ | 3.15e+06 M⁻¹ s⁻¹ | 33.9 MFI | 166 MFI | 151 MFI | 14.5 MFI | 179 MFI
H5L12 (antibody, human IgG1, kappa, V domains shown, human IgG1 / kappa constant regions; also called humanized antibody H5L12) VH: EVQLVQSGAEVKKPGESLKISCQSSGYSFTTYWIGWVRQMPGQGLEWIGIMSPVDSDIRYNPMFRGQVTMSVDKSSSTAYLQWSSLKASDTAMYYCARRRPGQGYFDFWGQGTMVTVSS VL: EIVLTQSPATLSASPGERATISCRASQSVSSWLAWYQQKPGQAPRSLIYAASNRQSGIPARFSGSGSGTDFTLTISSLEPEDFAVYYCQQYNIYPYTFGQGTRLEIKR | 0.0905 nM | 212000 M⁻¹ s⁻¹ | 0.000124 s⁻¹ | 0.000348 s⁻¹ | 3.84e+06 M⁻¹ s⁻¹ | 32.4 MFI | 161 MFI | 149 MFI | 12.7 MFI | 177 MFI
